Where two headings read alike, the source gives them in different places.
What was measured:
[1] = target: T1, HER3 extracellular domain recombinant protein (human, UniProt P21860 20-643); test: SPR, ProteOn XPR36; compared with the chimeric antibody
T1 construct: extracellular domain; also called HER3 extracellular domain protein; HER3 protein
Experimental: (§1) And the channels were turned to horizontal position, and Channels 1-5 were injected with 20 nM, 10 nM, 5 nM, 2.5 nM, 1.25 nM of samples of HER3 extracellular domain protein respectively, and Channel 6 was injected with buffer. 5 kinetic response curves were obtained, respectively representing the results of the reaction between different concentrations of antigen and the captured antibody. The Langmuir model was used to calculate the affinity constants KD (M) of each chimeric antibody and humanized antibody mutant.

[2] = target: T1, HER3 extracellular domain recombinant …; test: SPR, ProteOn XPR36; antibody captured by goat anti-human antibody, HER3 extracellular domain 1.25-20 nM as analyte, Langmuir model
Experimental: as §1

[3] = target: T1, HER3 extracellular domain recombinant …; test: as above; remark: listed apart in the source
Experimental: as §1

T1 sequence (P21860 20-643): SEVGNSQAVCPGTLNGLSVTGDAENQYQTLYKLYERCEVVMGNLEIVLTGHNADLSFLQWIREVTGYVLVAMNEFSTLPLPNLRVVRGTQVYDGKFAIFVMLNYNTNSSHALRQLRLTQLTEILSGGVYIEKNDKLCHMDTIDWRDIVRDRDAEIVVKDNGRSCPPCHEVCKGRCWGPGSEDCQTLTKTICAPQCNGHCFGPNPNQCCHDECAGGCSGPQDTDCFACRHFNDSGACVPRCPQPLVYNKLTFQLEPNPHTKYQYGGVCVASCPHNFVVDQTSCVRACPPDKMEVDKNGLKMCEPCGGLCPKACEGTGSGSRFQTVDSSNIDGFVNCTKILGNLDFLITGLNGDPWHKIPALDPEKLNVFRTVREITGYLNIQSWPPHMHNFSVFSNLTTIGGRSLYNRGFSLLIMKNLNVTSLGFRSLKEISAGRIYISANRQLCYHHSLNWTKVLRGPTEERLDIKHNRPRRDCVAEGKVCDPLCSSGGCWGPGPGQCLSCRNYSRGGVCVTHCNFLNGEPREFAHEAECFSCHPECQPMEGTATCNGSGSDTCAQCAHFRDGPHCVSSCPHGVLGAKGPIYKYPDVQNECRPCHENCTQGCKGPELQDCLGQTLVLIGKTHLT

Binder | fold lower affinity than the chimeric antibody [1] [fold] | Kd [2] [nM] | koff [2] [s⁻¹] | kon [2] [M⁻¹ s⁻¹] | Kd [3] [nM] | koff [3] [s⁻¹] | kon [3] [M⁻¹ s⁻¹] | fold of the affinity constant of the chimeric antibody [1] [fold] | fold difference in affinity from the chimeric antibody [1] [fold]
humanized antibody h1044-0 (antibody, V domains shown, also called humanized h1044-0 antibody after CDR transplantation) VH: QVQLVQSGAEVKKPGSSVKVSCKASGGTFSNYWIDWVRQAPGQGLEWMGEILPGSGGTDYNEKFKGRVTITADTSTSTAYMELSSLRSEDTAVYYCARDDYDVFAYWGQGTLVTVSS VL: DIVMTQSPGTLSLSPGERATLSCRSSKSLLHSNGITYLYWYQQKPGQAPRLLIYQMSNLASGIPDRFSGSGSGTDFTLTISRLEPEDFAVYYCAQNLELPWTFGQGTKVEIKR | ~32 | 8.48 | 0.00427 | 503000 |  |  |  |  | 
humanized antibody with VH1 back mutation (antibody, V domains shown) VH: EVQLVQSGAEVKKPGSSVKVSCKASGGTFSNYWIDWVRQAPGQGLEWMGEILPGSGGTDYNEKFKGRVTITADTSTSTAYMELSSLRSEDTAVYYCARDDYDVFAYWGQGTLVTVSS VL: DIVMTQSPGTLSLSPGERATLSCRSSKSLLHSNGITYLYWYQQKPGQAPRLLIYQMSNLASGIPDRFSGSGSGTDFTLTISRLEPEDFAVYYCAQNLELPWTFGQGTKVEIKR |  | 9.14 | 0.00382 | 418000 |  |  |  |  | 
humanized antibody hu1044-3 (VL69, VH48 back mutation) (antibody, human IgG1, V domains shown) VH: QVQLVQSGAEVKKPGSSVKVSCKASGGTFSNYWIDWVRQAPGQGLEWIGEILPGSGGTDYNEKFKGRVTITADTSTSTAYMELSSLRSEDTAVYYCARDDYDVFAYWGQGTLVTVSS VL: DIVMTQSPGTLSLSPGERATLSCRSSKSLLHSNGITYLYWYQQKPGQAPRLLIYQMSNLASGIPDRFSSSGSGTDFTLTISRLEPEDFAVYYCAQNLELPWTFGQGTKVEIKR |  |  |  |  | 0.554 | 0.000494 | 882000 | ≤ 2 | 
humanized antibody hu1044-5 (VL63/69, VH38 back mutation) (antibody, human IgG1, V domains shown) VH: QVQLVQSGAEVKKPGSSVKVSCKASGGTFSNYWIDWVKQAPGQGLEWMGEILPGSGGTDYNEKFKGRVTITADTSTSTAYMELSSLRSEDTAVYYCARDDYDVFAYWGQGTLVTVSS VL: DIVMTQSPGTLSLSPGERATLSCRSSKSLLHSNGITYLYWYQQKPGQAPRLLIYQMSNLASGVPDRFSSSGSGTDFTLTISRLEPEDFAVYYCAQNLELPWTFGQGTKVEIKR |  |  |  |  | 0.419 | 0.000353 | 844000 |  | 
humanized antibody hu1044-7 (VL63/69, VH67/68 back mutation) (antibody, human IgG1, V domains shown) VH: QVQLVQSGAEVKKPGSSVKVSCKASGGTFSNYWIDWVRQAPGQGLEWMGEILPGSGGTDYNEKFKGKATITADTSTSTAYMELSSLRSEDTAVYYCARDDYDVFAYWGQGTLVTVSS VL: DIVMTQSPGTLSLSPGERATLSCRSSKSLLHSNGITYLYWYQQKPGQAPRLLIYQMSNLASGVPDRFSSSGSGTDFTLTISRLEPEDFAVYYCAQNLELPWTFGQGTKVEIKR |  |  |  |  | 0.375 | 0.000376 | 1e+06 |  | 
humanized antibody hu1044-6 (VL63/69, VH68 back mutation) (antibody, human IgG1, V domains shown) VH: QVQLVQSGAEVKKPGSSVKVSCKASGGTFSNYWIDWVRQAPGQGLEWMGEILPGSGGTDYNEKFKGRATITADTSTSTAYMELSSLRSEDTAVYYCARDDYDVFAYWGQGTLVTVSS VL: DIVMTQSPGTLSLSPGERATLSCRSSKSLLHSNGITYLYWYQQKPGQAPRLLIYQMSNLASGVPDRFSSSGSGTDFTLTISRLEPEDFAVYYCAQNLELPWTFGQGTKVEIKR |  |  |  |  | 0.42 | 0.00038 | 904000 |  | 
humanized antibody hu1044-4 (VL69, VH68 back mutation) (antibody, human IgG1, V domains shown) VH: QVQLVQSGAEVKKPGSSVKVSCKASGGTFSNYWIDWVRQAPGQGLEWMGEILPGSGGTDYNEKFKGRATITADTSTSTAYMELSSLRSEDTAVYYCARDDYDVFAYWGQGTLVTVSS VL: DIVMTQSPGTLSLSPGERATLSCRSSKSLLHSNGITYLYWYQQKPGQAPRLLIYQMSNLASGIPDRFSSSGSGTDFTLTISRLEPEDFAVYYCAQNLELPWTFGQGTKVEIKR |  |  |  |  | 0.461 | 0.000388 | 841000 | ≤ 2 | 
1044 human-mouse chimeric antibody (antibody, V domains shown) VH: EVQLQQSGTELMKPGASVKISCKATGGTFSNYWIDWVKQRPGHGLEWIGEILPGSGGTDYNEKFKGKATFTADTSSNTAYMQLSSLTSEDSAVYYCARDDYDVFAYWGQGTLVTVSA VL: DIVMTQAAFSNPVTLGTSASISCRSSKSLLHSNGITYLYWYLQKPGQSPQLLIYQMSNLASGVPDRFSSSGSGTDFTLRISRVEAEDVGVYYCAQNLELPWTFGGGTKLEIKR |  | 0.262 | 0.000229 | 874000 | 0.278 | 0.000293 | 1.05e+06 |  | 

Next, values leading:

fold lower affinity than the chimeric antibody [1] [fold] | Kd [2] [nM] | koff [2] [s⁻¹] | kon [2] [M⁻¹ s⁻¹] | Kd [3] [nM] | koff [3] [s⁻¹] | kon [3] [M⁻¹ s⁻¹] | fold of the affinity constant of the chimeric antibody [1] [fold] | fold difference in affinity from the chimeric antibody [1] [fold] | Binder
 | 6.49 | 0.00344 | 531000 |  |  |  |  |  | humanized antibody with VH76 back mutation (antibody, V domains shown) VH: QVQLVQSGAEVKKPGSSVKVSCKASGGTFSNYWIDWVRQAPGQGLEWMGEILPGSGGTDYNEKFKGRVTITADTSSSTAYMELSSLRSEDTAVYYCARDDYDVFAYWGQGTLVTVSS VL: DIVMTQSPGTLSLSPGERATLSCRSSKSLLHSNGITYLYWYQQKPGQAPRLLIYQMSNLASGIPDRFSGSGSGTDFTLTISRLEPEDFAVYYCAQNLELPWTFGQGTKVEIKR
 | 7.07 | 0.00327 | 463000 |  |  |  |  |  | humanized antibody with VH77 back mutation (antibody, V domains shown) VH: QVQLVQSGAEVKKPGSSVKVSCKASGGTFSNYWIDWVRQAPGQGLEWMGEILPGSGGTDYNEKFKGRVTITADTSTNTAYMELSSLRSEDTAVYYCARDDYDVFAYWGQGTLVTVSS VL: DIVMTQSPGTLSLSPGERATLSCRSSKSLLHSNGITYLYWYQQKPGQAPRLLIYQMSNLASGIPDRFSGSGSGTDFTLTISRLEPEDFAVYYCAQNLELPWTFGQGTKVEIKR
 |  |  |  | 0.442 | 0.000386 | 875000 | ≤ 2 |  | humanized antibody hu1044 (VL69, VH38 back mutation) (antibody, V domains shown, also called final humanized antibody hu1044) VH: QVQLVQSGAEVKKPGSSVKVSCKASGGTFSNYWIDWVKQAPGQGLEWMGEILPGSGGTDYNEKFKGRVTITADTSTSTAYMELSSLRSEDTAVYYCARDDYDVFAYWGQGTLVTVSS VL: DIVMTQSPGTLSLSPGERATLSCRSSKSLLHSNGITYLYWYQQKPGQAPRLLIYQMSNLASGIPDRFSSSGSGTDFTLTISRLEPEDFAVYYCAQNLELPWTFGQGTKVEIKR
 | 6.02 | 0.00317 | 525000 |  |  |  |  |  | humanized antibody with VH25 back mutation (antibody, V domains shown) VH: QVQLVQSGAEVKKPGSSVKVSCKATGGTFSNYWIDWVRQAPGQGLEWMGEILPGSGGTDYNEKFKGRVTITADTSTSTAYMELSSLRSEDTAVYYCARDDYDVFAYWGQGTLVTVSS VL: DIVMTQSPGTLSLSPGERATLSCRSSKSLLHSNGITYLYWYQQKPGQAPRLLIYQMSNLASGIPDRFSGSGSGTDFTLTISRLEPEDFAVYYCAQNLELPWTFGQGTKVEIKR
 |  |  |  | 0.595 | 0.000502 | 843000 |  | ~2 | humanized antibody hu1044-1 (VL69 back mutation) (antibody, human IgG1, V domains shown, h1044-0 with Gly to Ser at VL69) VH: QVQLVQSGAEVKKPGSSVKVSCKASGGTFSNYWIDWVRQAPGQGLEWMGEILPGSGGTDYNEKFKGRVTITADTSTSTAYMELSSLRSEDTAVYYCARDDYDVFAYWGQGTLVTVSS VL: DIVMTQSPGTLSLSPGERATLSCRSSKSLLHSNGITYLYWYQQKPGQAPRLLIYQMSNLASGIPDRFSSSGSGTDFTLTISRLEPEDFAVYYCAQNLELPWTFGQGTKVEIKR

Reference: US20210277144A1 (SHANGHAI INSTITUTE OF BIOLOGICAL PRODUCTS, published 2021)
